# In the DeepSol protein solubility set:
# Assay: soluble on expression in E. coli; label from the status in PepcDB or PDB records
row,Sequence,soluble on expression in E. coli
1,MGSDKIHHHHHHMKIFITGATGLIGSNLIPLLLEKEYQITALVRDMEKARHQLPNQVQLVKALSHYENFNDFDGVINLAGAPIFAQYWTAGYKTELINSRLNLTENLTALINNSNKPPHCFISASATGYYGDQGNNLITEKSLSGNQFTAQLCQQWENIALQANSRVCLLRTGMVFSEKGGALTKILPIYRYGVGGKLGTGKQFWAWISLQDMLQAILFLLENAQCEGAFNLVAPKPIQNKDFNCQLGAWLKRPYLATVPKFLLNLLLGERATLLLDSQNVIPQKLLEAGFHFSTPTFSDFLHSIKK,not soluble
2,GSHMAAELDSLLGQEKERFQVLPGRDKMLYVAAQNERDTLWARQVLARGDYDKNARVINENEENKRISIWLDTYYPQLAYYRIHFDEPRKPVFWLSRQRNTMSKKELEVLSQKLRALMPYADSVNITLMDDVTAAGQAEAGLKQQALPYSRRNHKGGVTFVIQGALDDVEILRARQFVDSYYRTWGGRYVQFAIELKDDWLKGRSFQYGAEGYIKMSPGHWYFPSPL,soluble
3,MIEFHNVHKTYRVAGKEIPALHPTNLRVDDGQVFGIIGHSGAGKSTLLRLINRLETPSGGQIVVDGEDVTALDANGLRRFRQQVGMIFQHFNLLASRTVADNVAMPLTLAGDMPRKQIDQRVAELLERVGLSDHAKKYPAQLSGGQKQRVGIARALATKPKILLCDEATSALDPQTTASVLQLLAEINRELKLTIVLITHEMDVIRRVCDQVAVMDAGVIVEQGKVADVFLHPQHSTTKRFVQEDDQVDENEQRDDFAHVQGRIVRLTFQGDATYAPLLGTVARETGVDYSILAGRIDRIKDTPYGQLTLAITGGDMDAAFARFTAADVHMEVLR,not soluble
4,AVPKIRIAVPSKGRISEPAIRLLENAGVGLKDTVNRKLFSKTQHPQIEVMFSRAADIPEFVADGAADLGITGYDLIVERGSDVEILEDLKYGRASLVLAAPEDSTIRGPEDIPRGAVIATEFPGITENYLREHGIDAEVVELTGSTEIAPFIGVADLITDLSSTGTTLRMNHLRVIDTILESSVKLIANRESYATKSGIIEELRTGIRGVIDAEGKRLVMLNIDRKNLDRVRALMPGMTGPTVSEVLSDNGVVAVHAVVDEKEVFNLINRLKAVGARDILVVPIERIIP,soluble
5,MRGSHHHHHHGSDLGKKLLEAARAGQDDEVRILMANGADVNANDWFGITPLHLVVNNGHLEIIEVLLKYAADVNASDKSGWTPLHLAAYRGHLEIVEVLLKYGADVNAMDYQGYTPLHLAAEDGHLEIVEVLLKYGADVNAQDKFGKTAFDISIDNGNEDLAEILQKLN,soluble
6,GPAIAENLYFQSPNPRPGKPSAPSLALGPSPGASPSWRAAPKASDLLGARGPGGTFQGRDLRGGAHASSSSLNPMPPSQLQLPTLPLVMVAPSGARLGPLPHLQALLQDRPHFMHQLSTVDAHARTPVLQVHPLESPAMISLTPPTTATGVFSLKARPGLPPGINVASLEWVSREPALLCTFPNPSAPRKDSTLSAVPQSSYPLLANGVCKWPGCEKVFEEPEDFLKHCQADHLLDEKGRAQCLLQREMVQSLEQQLVLEKEKLSAMQAHLAGKMALTKASSVASSDKGSCCIVAAGSQGPVVPAWSGPREAPDSLFAVRRHLWGSHGNSTFPEFLHNMDYFKFHNMRPPFTYATLIRWAILEAPEKQRTLNEIYHWFTRMFAFFRNHPATWKNAIRHNLSLHKCFVRVESEKGAVWTVDELEFRKKRSQRPSRCSNPTPGP,soluble
7,MNASSEFTLQFESHAVRVQVDEAGTPWFNANDICTAVELLNPCAALAQHVGARNVSKRKIIDTIGRTQRANYLNEPGVLTLLIGSTKEAAKRLRRWLISEALPAAAVQKAGQHSVPQHHAPSISTPFQPTEDHTMNAITPFQFESHAVRTVVDDHGEVWFVGKDVADVLGYTNHNKALGDHCKGVPKRYPLQTPGGIQEIRIISEPDMLRLIVSSKLPAAERFERWVTSEVLPTIHKTGNRPALDHSTHSANAITPFQFESKDVRIQLDEASAPWFNANDVCSILEFGNPRQAIESHVDVEDVQKLDATDNLGRTRQTNHINESGLYALIMGSTKPAAKRFKRWVTSEVLPTLRKTGTYSTPGALPTLPGPTQDRIAALLLIGQYISTVPGVKPGIAAAATLACIKSNTNLTTEEIRRALPALRDPLCMLNATQLGKQLHCSAKAVNQLLASRGLQFRNERDDWELTEAGRVWGEAIPYSRNGHSSYQILWNPTVVDSLKVAA,soluble
8,MNIKSLQLFIHLCESKSFAKTAAAMHISPSALSRQIQKLEEETNQQLFVRDNRSVELTTQGKKLMPVALKILSEWQQYQNHIKGTEGELKGEIRLFCSVTASYSHLPELISDFRLQHPFIEFKLSTGDPAQAIDKILADEADIAISAKSEQMPNKIAFET,not soluble
9,MKCLKPSIGPVRGTDGDWKNIMKQFLRCGLAFAWSSVLGSSIAMDSLFGLPVRSTVKANLGALREGYVNIAVHGHSPLLVSEIVKQGRSREFIQMAKEKGALGIQFYGICCSGLSAMYRYGGVIPLSNAIGAELVLGTGAIDLWVADVQDVFPSIMDVAKCFKTTVVTTSDSARLPGAEHYAYDHHHSNLAQTQELAKTIVKRAIESFEARRDVPVFIPNYEVDAEIGFSVEYATSRFGSMDVIAKALQEGKIRGVVNLVGCNNPRVMYEKAIADVARKLIENNILVLTNGCASFPLLKLGYCNVKALEWTGKELREFLEPDLPPVWHMGECLDNARASAFFRALADSLKKDIKDMPFAFASPEWSNEKGVGAALGFRLLGINSYHSVYPPVQGSKNVMKYLFEDTEKTLGAVMIVEVDPLKLADRIISDIDEKRKALMWK,not soluble
10,MILGIDIGGANTKITELHENGEFKVHHLYFPMWKNNDKLAEVLKTYSNDVSHVALVTTAELADSYETKKEGVDNILNAAESAFGSNISVFDSNGNFISLESAKTNNMKVSASNWCGTAKWVSKNIEENCILVDMGSTTTDIIPIVEGKVVAEKTDLERLMNHELLYVGTLRTPISHLGNTISFKGVDTNVSSEYFAITADISVVLEKVTTEEYTCDTPDGKGTDKRSSLVRISKVLCSDLDQISEIDAENIAKNYYELWKELILENVENVAEKYGSKKVVITGLGENILKDALADFEVISVAERYGKDVSLATPSFAVAELLKNELLEHHHHHH,soluble
11,MLQQVREQVAARLRLDAGRPWLMVHAGSGGSANNLSIEQYARLIIKLNQACPELQCILTAGPGEERIAEQLAAELLAHGGNGWIYRSDEGLPKFCQVMANAALFVAGSTGPLHIAAALDVPTIGFFPAHRSATPLRWRPLNSEGRHLAFSPPEDSDHPEDMSQLDPKTMAAAIARWAPPFWRTEHLEHHHHHH,not soluble
12,GPGSMLSRIKRQQEEAQAATRSGGESAINQPGQKESMAVLRLKNDLDNLDGICSKVVIPDPDNMLRMKVTVRPSRPSIWHGGFFDFLLEFREEYPYEGPRVRYVGPNRVWHPNIEGSEFAEKEGMEKASRKTEWSVCLSFQTDWKPTFSLRDVIIMIELLFQDPNPDDPLHGTSKQAAQMMKDDPVRFRTKARYWMSGHYID,soluble
13,MQLQKLVNMFGGDLTRRYGQKVHKLTLHGGFSCPNRDGTIGRGGCTFCNVASFADEAQQHRSIAEQLAHQANLVNRAKRYLAYFQAYTSTFAEVQVLRSMYQQAVSQANIVGLCVGTRPDCVPDAVLDLLCEYKDQGYEVWLELGLQTAHDKTLHRINRGHDFACYQRTTQLARQRGLKVCSHLIVGLPGEGQAECLQTLERVVETGVDGIKLHPLHIVKGSIMAKAWEAGRLNGIELEDYTLTAGEMIRHTPPEVIYHRISASARRPTLLAPLWCENRWTGMVELDRYLNEHGVQGSALGRPWLPPTE,soluble
14,QINPAARKELVIENDIETMHPVFKGFKDKLVPHLRMAAQGATLTGVNVPIGDKVFRWNLSPIRVDGDISGIIVQGQDITTLIEAEKQSNLARREAEKSAQARADFLAKMSHEIRTPINGILGVAQLLKDSVEAEEQKNQIDVLRHSGEHLLAVLNDILDFSKIEQGKFNIQKHPFSFADTMRTLENIYRPICENKGVELVIENQLDGNVEIFTDQVRLNQILFNLVSNAVKFTPSGCVRLHAELEQFYGADNSVLVVEISDTGIGIESDKLDEMFEPFVQEEATTTR,not soluble
15,MSLNDNPAWFNNPRKRAIPNSIIKRSNGQSLSPVRSDSADVPAFSNSNGFNNVTFGSKKDPRILKNVSPNDNNSANNNAHSSDLGTVVFDSNEAPPKTSLADWQKEDGIFSSKTDNIEDPNLSSNITFDGKPTATPSPFRPLEKTSRILNFFDKNTKTTPNTASSEASAGSKEGASTNWDDHAIIIFGYPETIANSIILHFANFGEILEDFRVIKDFKKLNSKNMSKSPSLTAQKYPIYTGDGWVKLTYKSELSKSRALQENGIIMNGTLIGCVSYSPAALKQLASLKKSEEIINNKTSSEGHHHHHH,soluble
16,MKEVARVRNLNRIIMGKYEIEPWYFSPYPIELTDEDFIYIDDFTLQYFGSKKQYERYRKKCTLRHPPGNEIYRDDYVSFFEIDGRKQRTWCRNLCLLSKLFLDHKTLYYDVDPFLFYCMTRRDELGHHLVGYFSKEKESADGYNVASILTLPQYQRMGYGKLLIEFSYELSKKENKVGSPEKPLSDLGLLSYRAYWSDTLITLLVEHQKEITIDEISSMTSMTTTDILHTAKTLNILRYYKGQHIIFLNEDILDRYNRLKAKKRRTIDPNRLIWKPPV,soluble
17,MKKDQYFNLEVNFLSNDNIVRMMMELDAAQSLGIYMMLLTHLRKADNYEASCCPLCMGAFARMYDLDAGVLQRVLREFDLFVLDEERQMFRSPYLDRVMARLEERRMINVANGKKGGRPKRMESTPETPMDKGEKPNQNQKSREEERRVTTVVKDNNSSNEEKTEKENSAAASDRLQIVSPPEDRGQLPLQPVLPWEMLVDQMAESESYMESMAMHSCMGKLFVERQEEVIAAFKEHIRRFGREDGLLFLRDVKLYFGNYLSPGGRPAQELKKRLLGSCRQSAEEELYRFEQLIGGQRTYLGHPIPKDAPPRPDRSAVWDEVHWKWGN,not soluble
18,MSLKKLIAVAVLSACGSLAHANTNIPNYNTDAHLYEFTQTYDLVVPKGSQGQTNLWVPLPFNGEYQQVKSIHFEGNYMNAYVTENNKYGAKTLFATWNKDAQKRDLKVMMVIETKDREPMVKGALENYTPPKDIQYSVDVQEYLKATPHIKTDGIVKEFPDKILGKETNPLKKAELIHHWFVKNMERDNSVLGCGDGDVEKILTTGVLKGKCTDINSVFVALARAAGIPAREIFGIRLGAAEKMGKYSKGAFGSANEQGIANVSGGQHCRAEFYLAGFGWVPVDSADVAKMRLAEKKSVEDKDTQAVAKYLFGNWEANWVGFNHARDFDLYPQPELAPINNFGYPYAEVGGDPLNSFDPKEFKYDYVSKKLEGGSHHHHHH,soluble
19,GSHMPNYDTSIDIEDIKKILPHRYPFLLVDKVIYMQPNKTIIGLKQVSTNEPFFNGHFPQKQIMPGVLQIEALAQLAGILCLKSDDSQKNNLFLFAGVDGVRWKKPVLPGDTLTMQANLISFKSSLGIAKLSGVGYVNGKVVINISEMTFALSK,soluble
20,MLMPRQTTPPLSLPLVGGGRFDLSAETSTRWTLICFYRGLHCPICATYLKELEKRVADFAERGVACVAVSSDSEERAQAMAEKVGGGTLRFAYDLPLAEARDWGLYISTSRGKTSIGIEEPALFSEPGLFLVTPERTLYYGAVQTMPFVR,not soluble
21,EELEYKGMNTLQISNVDDLISFYQYADDRIPLISGHRGGRGKGYPENSMETFENTLSYTPATFEIDPRLTKDSVIVLFHDDTLERTSNGTGKVSDYTWEELQNFRLKDPEGNITNYRIPTLEEAIRWARGKTILILDKKDVPMERTAQLITDMQAEPYVMITVHDGASARFFYEKNPNFMFEAFVKTKEAVQDYEDNGIPWSHIMAYVGPKITPEVREVIDMLHERGVMCMISTAPSDDKLSTPESRAEAYRMIIRQGVDIIESDRPIEVAEAISSLIPVSSSKGKFFSTL,soluble
